molecular target: CUL2^ZYG11B (residues 490–728) (human) (UniProt Q9C0D3); test: ITC; MicroCal iTC200; peptides (0.5–1 mmol/L) in the syringe, CUL2^ZYG11B(490–728) (0.03 mmol/L) in the cell; 18 injections of 2 μL; repeated 3 times
Sequence (Q9C0D3 490-728): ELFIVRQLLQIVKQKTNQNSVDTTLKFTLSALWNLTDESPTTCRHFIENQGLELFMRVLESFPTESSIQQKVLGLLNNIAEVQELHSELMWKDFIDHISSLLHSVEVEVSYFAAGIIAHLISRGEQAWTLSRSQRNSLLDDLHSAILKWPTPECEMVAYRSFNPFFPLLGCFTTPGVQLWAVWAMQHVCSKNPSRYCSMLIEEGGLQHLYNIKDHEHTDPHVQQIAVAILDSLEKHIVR

Row | Substance | fold decrease of binding against ORF10 N5 [fold] | Kd [µM]
1 | SARS-CoV-2 ORF10 N5 peptide G1A | 4 | –
2 | SARS-CoV-2 ORF10 N5 peptide G1S | 4 | –
3 | SARS-CoV-2 ORF10 N5 peptide I3A | – | 5.61
4 | SARS-CoV-2 ORF10 N5 peptide I3F | – | 0.87
5 | SARS-CoV-2 ORF10 N5 peptide N4A | – | 0.59
6 | SARS-CoV-2 ORF10 N5 peptide Y2A | – | 25.2
7 | SARS-CoV-2 ORF10 N5 peptide Y2F | – | 4.73

Reference: paper PMC11413682
